We go through three substances from patent US20190367616A1.

Experiment [1] addresses cynomolgus PD-1 ECD (Acro Biosystems cat. no. PD1-05223) (cynomolgus) (UniProt B0LAJ3). In words: SPR, antibody on sensor, monomeric PD-1 ECD in solution. A general note: Surface plasmon resonance follows binding to a sensor surface in real time, without labels.
Experiment [2] has as its target human PD-1 expressed on CHO-S cells (human) (UniProt Q15116). In words: flow cytometry PD-L1 blocking assay on CHO-S cells transiently expressing human PD-1; non-specific control antibody; ligand R-PE PD-L1-Fc (16.4 nM final). On the technique in general: A flow cytometer gives signals particle by particle.

Chain of human PD-1 expressed on CHO-S cells (human) (Q15116 25-288): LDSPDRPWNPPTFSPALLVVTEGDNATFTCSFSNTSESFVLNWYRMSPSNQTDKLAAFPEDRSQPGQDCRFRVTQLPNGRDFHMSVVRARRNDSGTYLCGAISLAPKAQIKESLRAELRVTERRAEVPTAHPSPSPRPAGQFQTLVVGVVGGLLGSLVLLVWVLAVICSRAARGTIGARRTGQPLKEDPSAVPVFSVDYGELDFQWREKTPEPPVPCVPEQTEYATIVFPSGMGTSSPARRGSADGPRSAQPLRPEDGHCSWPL
Chain of cynomolgus PD-1 ECD (Acro Biosystems cat. no. PD1-05223) (cynomolgus) (B0LAJ3 entry or part of it limits assumed): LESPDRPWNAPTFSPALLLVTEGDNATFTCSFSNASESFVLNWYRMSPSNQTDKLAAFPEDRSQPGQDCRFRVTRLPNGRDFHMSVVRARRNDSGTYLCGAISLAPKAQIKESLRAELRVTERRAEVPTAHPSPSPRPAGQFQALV

Regarding nivolumab analogue (antibody), the Kd in experiment [1] is 1.5 nM. Turning to pembrolizumab/Keytruda (antibody), the Kd in experiment [1] was determined as 3.6 nM. In experiment [2], control mAb (antibody) showed a % of cells hu IgG binding negative / PD-L1 binding negative (lower left quadrant) of 66.5%; a % of cells hu IgG binding negative / PD-L1 binding positive (lower right quadrant) of 32.6%; a % of cells hu IgG binding positive / PD-L1 binding negative (upper left quadrant, 'blocking') of 0.28%.

As a reminder, the Kd is the constant that tells how readily two partners part at equilibrium. Low readings indicate tighter binding, high ones weaker binding.
